Test results: EP4242225A1
Like-named read-outs stand apart in the source and are kept apart here.

B1: hcAb 2.15 (Fc fusion)
heavy: QVQLVESGGGSVQAGGSLKLSCAASGYASWARKCIGWFRQAPGQEREGVAAIFDFDGSTYYSDSVKGRFTISGDNAKNTVSLQMNSLLPKDTAVYYCTVAFGTCDNWYRGRGDYWGQGTQVTVSS
B2: Nb 2.15 (VHH)
VHH: QVQLVESGGGSVQAGGSLKLSCAASGYASWARKCIGWFRQAPGQEREGVAAIFDFDGSTYYSDSVKGRFTISGDNAKNTVSLQMNSLLPKDTAVYYCTVAFGTCDNWYRGRGDYWGQGTQVTVSS
B3: Nb 1.10 (VHH)
VHH: QVQLVESGGGSVQAGGSLRLSCAASGYTYSTCRKGWYRQAPGKERELVASITADGATYYLDSVKGRLTISQDNAKNTVYLQMNSLKPEDTAVYYCAASVKDFTCTFNSWGQGTQVTVSS
B4: hcAb 1.10 (Fc fusion)
heavy: QVQLVESGGGSVQAGGSLRLSCAASGYTYSTCRKGWYRQAPGKERELVASITADGATYYLDSVKGRLTISQDNAKNTVYLQMNSLKPEDTAVYYCAASVKDFTCTFNSWGQGTQVTVSS

Tests used:
Settings in all cases: remark: other sources report otherwise
[1] = biological target: T1, RBD-FH, monomeric RBD (332-534) with a FLAG peptide and an 8xHis-tag at the C-terminus (SARS-CoV-2), P0DTC2
[2] = biological target: RBD-Fc, Wuhan strain (WA1) (SARS-CoV-2; human), P0DTC2
[3] = biological target: T1, RBD-FH, monomeric RBD (332-534) with a …; remark: listed apart in the source

| Binder | Kd [1] | koff [1] | kon [1] | % inhibition of RBD binding to hACE2 [2] | Kd [3] | koff [3] | kon [3] |
| --- | --- | --- | --- | --- | --- | --- | --- |
| B1 | 0.08 nM | 0.00012 s⁻¹ | 1.42e+06 M⁻¹ s⁻¹ | > 95% | – | – | – |
| B2 | – | – | – | – | 0.39 nM | 0.000778 s⁻¹ | 2.02e+06 M⁻¹ s⁻¹ |
| B3 | – | – | – | – | 3.96 nM | 0.00137 s⁻¹ | 345000 M⁻¹ s⁻¹ |
| B4 | 0.35 nM | 0.000237 s⁻¹ | 679000 M⁻¹ s⁻¹ | > 95% | – | – | – |
